Data on 41 sequences can be found in the nanobody polyreactivity screen of Harvey et al. (2022).

The series is described as follows: yeast display, Sf9 membrane polyspecificity reagent, FACS + sequencing; frameworks hold sequencing errors. The essentials:
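A nanobody's polyreactivity label depends on the gate it was sorted from. Yeast display cells were stained with 10% biotinylated, detergent-solubilized Sf9 membrane reagent for 1 hour at 4 °C, enriched on streptavidin microbeads and sorted by FACS. The low and high (top ~1%) gates were set on anti-HA fluorescence for expression and streptavidin fluorescence for reagent binding.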
On to “QVQLVESGGGLVQAGGSLRLSCAASGRTFITNAMGRNRQAPGKERELVARISSDGSTYYADSVKGRFTISRDNAKNTVYLQMNSLKPEDTAVYYCNKEFLRRQLFTFWHLGGYWGQVTQVTVSS”, for which the “polyreactivity (PSR sort gate)” value was “low polyreactivity”.

“QVQLVESGGGLVQAGGSLRLSCAASGRTFITYAMGWYRQAPGKERELVAAISWNGGTTYYADSVKGRFTISRDNAKNTVYLQMNSLKPEDTAVYYCAAYRWYSAARMGYWGQGTQVTVSS”: the “polyreactivity (PSR sort gate)” value is on record as “high polyreactivity”.

In the case of “QVQLVESGGGLVQAGGSLRLSCAASGRTFIYYAMGWSRQAPGKERELVAGISRNGGRTYYADSVKGRFTISRDNAKNTVYLQMNSLKPEDTAVYYCNAYPPSRHDYLGQGTQVTVSS”, the “polyreactivity (PSR sort gate)” value is “high polyreactivity”.

Turning to “QVQLVESGGGLVQAGGSLRLSCAASGRTFIYYAMGWYRQAPGKERELVARIRANGVSTYYADSVKGRFTISRDNAKNTVYLQMNSLKPEDTAVYYCAKGYFPSQYEYWGQGTQVTVSS”, the “polyreactivity (PSR sort gate)” value is “high polyreactivity”.

In the case of “QVQLVESGGGLVQAGGSLRLSCAASGRTFKAYAMGWYRQAPGKERELVAAITYSGGSTYYADSVKGRFTISRDNAKNTVYLQMNSLKPEDTAVYYCAASAQSRSRVKLYYWGQGTQVTVSS”, the “polyreactivity (PSR sort gate)” value is reported as “high polyreactivity”.

With “QVQLVESGGGLVQAGGSLRLSCAASGRTFKDYAMGWYRQAPGKERELVAAISWSGGDTYYADSVKGRVTISRDNAKNTVYLQMNSLKPEDTAVYYCNADPSGVFFYSLEFDYWGQGTQVTVSS”, the “polyreactivity (PSR sort gate)” value is “low polyreactivity”.

For the sequence “QVQLVESGGGLVQAGGSLRLSCAASGRTFKHYAMGWYRPAPGKERELVAAITSGGSTYYADSVKGRFTISRDNAKNTVYLQMNSLKPEDTAVYYCNKESYFDTYRRYDSWGQGTQVTVSS”, the “polyreactivity (PSR sort gate)” value is “low polyreactivity”.

With “QVQLVESGGGLVQAGGSLRLSCAASGRTFKNNAMGWYRQAPGKERELVAAISSNGGSTYYADSVKGRFTISRDNAKNTVYLQMNSLKPEDTAVYYCAADRTIVEYYYWGQGTQVTVSS”, the “polyreactivity (PSR sort gate)” value was “high polyreactivity”.

Consider “QVQLVESGGGLVQAGGSLRLSCAASGRTFKNYAMGWYRQAPGKERELVAAISSGGGRTKYADSVKGRFTISRDNAKNSVYLQMNSLKPEDTAVYYCAAAYYYRDDYWGQGTQVTVSS”, for which the “polyreactivity (PSR sort gate)” value is reported as “high polyreactivity”.

“QVQLVESGGGLVQAGGSLRLSCAASGRTFKPYVMGWYRQAPGKERELVAAISSRGDITYYADSVKCRFTISRHNAKNTVYLHMNSLKPEDTAVYYCNAGPAVRSAYSTPYYDYWGQGTQVTVSS”: the “polyreactivity (PSR sort gate)” value is “low polyreactivity”.

Consider “QVQLVESGGGLVQAGGSLRLSCAASGRTFKRKAKGWYRQAPGKEWEFVAVITGSGGSTYYADSVKGRFTISRDNAKNTVYLQMNSLKPEDTAVYYCAAALGLRSTSWGRRGGGGDYWGQGTQVTVSS”, for which the “polyreactivity (PSR sort gate)” value was “high polyreactivity”.

With “QVQLVESGGGLVQAGGSLRLSCAASGRTFKRYAMGWYRQAPGKERELVAAITASGGNTYYADSVKGRFTISRDNAKNTVYLQMNSLKPEDTAVYYCNAVTSVQARPRNYYYWGQGTQVTVSS”, the “polyreactivity (PSR sort gate)” value is on record as “high polyreactivity”.

As for “QVQLVESGGGLVQAGGSLRLSCAASGRTFKRYAMGWYRQAPGKERELVATISGNGGRTYYADSVKGRFTISRDNAKNTVYLQMNSLKPEDTAVYYCAALLYIRSVGYDYWGQGTQVTVSS”, the “polyreactivity (PSR sort gate)” value is “low polyreactivity”.

As for “QVQLVESGGGLVQAGGSLRLSCAASGRTFKSYAMGWNRQAPGQERELVATITRDGRTNYADSVKGRFTISRDNAKNTVYLQLNSLKPEDTAVYYCNADSRYRYDYWGQGTQVTVSS”, the “polyreactivity (PSR sort gate)” value is given as “low polyreactivity”.

On to “QVQLVESGGGLVQAGGSLRLSCAASGRTFKTYAMGWYRQAPGKERELVAAISRDGRTYYADSVKGRFTISRDNAKNTVYLQMNSLKPEDTAVYYCNKRSYRKGDYWGQGTQVTVSS”, for which the “polyreactivity (PSR sort gate)” value is recorded as “low polyreactivity”.

Consider “QVQLVESGGGLVQAGGSLRLSCAASGRTFKTYAMGWYSQAPGKERELVAAISRDGRTYYADSVKGRFTISRDNAKNTVYLQMNSLKPEDTAVYYCNKRSYRKGDYWGQGTQVTVSS”, for which the “polyreactivity (PSR sort gate)” value was “low polyreactivity”.

On to “QVQLVESGGGLVQAGGSLRLSCAASGRTFKWNAMGWYRPAPGKERELVAAISISAGSTYYADSVKGRFTISRDNAKKTVYLQMNSLKPEDTAVYYCNTKYVRFYSRMDSWGQGTQVTVSS”, for which the “polyreactivity (PSR sort gate)” value is reported as “low polyreactivity”.

In the case of “QVQLVESGGGLVQAGGSLRLSCAASGRTFKWYAMGLYRQAPGKEREFVAGISRGAGRTYYADSVKGRFTISRDNAKNTVYLQMNSLKPEDTAVYYCAAVPSYHSTSPFYYWGQGTQVTVSS”, the “polyreactivity (PSR sort gate)” value was “high polyreactivity”.

For “QVQLVESGGGLVQAGGSLRLSCAASGRTFKYNAMGWYRQAPGKERELVAAITRSGSTYYADSVKGRFTISRDNAKNTVYLQMNSLKPEDTAVYYCNARIVNYGSYYYWGQGTQVTVSS”, the “polyreactivity (PSR sort gate)” value is on record as “high polyreactivity”.

As for “QVQLVESGGGLVQAGGSLRLSCAASGRTFKYNAMGWYRQAPGKERELVAVIRYSGGTTYYADSVKGRFTISRDNAKNTVYLQMNSLKPEDTAVYYCARGFTYQYSSFYYWGQGTQVTVSS”, the “polyreactivity (PSR sort gate)” value was “low polyreactivity”.

As for “QVQLVESGGGLVQAGGSLRLSCAASGRTFKYNAMGWYRQAPGKERELVAVIRYSGGTTYYADSVKGRVTISRDNAKNTVYLQMNSLKPEDTAVYYCAADSWSRSVNYYYWGQGTQVTVSS”, the “polyreactivity (PSR sort gate)” value is recorded as “low polyreactivity”.

For “QVQLVESGGGLVQAGGSLRLSCAASGRTFKYNTMGWYRQAPGKERELVAVISRSGGRTYYADSVKGRFTISRDNAKNTVYLQMNSLKPEDTAVYYCAARARGNDGYYWGQGTQVTVSS”, the “polyreactivity (PSR sort gate)” value was “high polyreactivity”.

“QVQLVESGGGLVQAGGSLRLSCAASGRTFKYYAKGWYRQAPGKERELVAAINSGGITYYADTVKGRFTISRDNEKNTVYLQRNSLKAEDTAVYYCAKVWKIGVLRYPSYGYYYWGQGTQVTVSS”: the “polyreactivity (PSR sort gate)” value is listed as “high polyreactivity”.

On to “QVQLVESGGGLVQAGGSLRLSCAASGRTFKYYAMGWYRPAPGKERELVAAISYNGGSTFYADSVKGRFTISRDNAKNTVYLQMNSLKPEDTAVYYCAAGPRGTGKYYWGQGTQVTVSS”, for which the “polyreactivity (PSR sort gate)” value is listed as “high polyreactivity”.

For the sequence “QVQLVESGGGLVQAGGSLRLSCAASGRTFKYYAMGWYRQAPGKERELVAAISVSGGRTYYADSVKGRFTISRDNAKNTVYLQMNSLKPEDTAVYYCNAVRYVHPEDYWGQGTQVTVSS”, the “polyreactivity (PSR sort gate)” value was “high polyreactivity”.

For the sequence “QVQLVESGGGLVQAGGSLRLSCAASGRTFKYYAMGWYRQAPGKERELVAAITRSGSTNYADSVKGRFTISRDNAKNSVYLQMNSLKPEDTAVYYCAADVTLYYRGRRYYYWGQGTQVTVSS”, the “polyreactivity (PSR sort gate)” value is reported as “high polyreactivity”.

Turning to “QVQLVESGGGLVQAGGSLRLSCAASGRTFKYYAMGWYRQAPGKERELVAASTTGGSTHYADSVKGRFTISRDNAKNTVYLQMNSLKPEDTAVYYCAAGPFARYDYWGQGTQVTVSS”, the “polyreactivity (PSR sort gate)” value is “low polyreactivity”.

As to “QVQLVESGGGLVQAGGSLRLSCAASGRTFKYYGMGWYRQAPGKERELVATISRSSSRTYYADSVKGRFTISRDNAKNTVYLQMNSLKPEDTAFYYCATLGPRSYAYDYWGQGTQVTVSS”, the “polyreactivity (PSR sort gate)” value is listed as “high polyreactivity”.

On to “QVQLVESGGGLVQAGGSLRLSCAASGRTFLAMGWYRQAPGKERELVAAISRTNYADSVKGRFTISRDNAKNTVYLQMNSLKPEDTAVYYCAKEYYSYEVYLGLSYVRRYDYWGQGTQVTVSS”, for which the “polyreactivity (PSR sort gate)” value was “low polyreactivity”.

For “QVQLVESGGGLVQAGGSLRLSCAASGRTFLFYAMGWYRQAPGKERELVAAIRRGGSTYYADSVKGRFTISRDNAKNTVYLQMNSLKPEDTAVYYCNAGSALRRSYYRYYYWGQGTQVTVSS”, the “polyreactivity (PSR sort gate)” value is reported as “high polyreactivity”.

As to “QVQLVESGGGLVQAGGSLRLSCAASGRTFLGNAMGWYRQAPGKERELVAAIRYSGGRTYYADSVKGRFTISRDNAKNTVYLQMNSLKPEDTAVYYCAKDRRYYKAYDYWGQGTQVTVSS”, the “polyreactivity (PSR sort gate)” value is “low polyreactivity”.

Consider “QVQLVESGGGLVQAGGSLRLSCAASGRTFLGYAMGWYRQAPGKERELVAAISYSGSSTYYADSVKGRFTISRDNAKNTVYLQMNSLKPEDTAVYYCAAQFYFLFDYWGQGTQVTVSS”, for which the “polyreactivity (PSR sort gate)” value was “low polyreactivity”.

For the sequence “QVQLVESGGGLVQAGGSLRLSCAASGRTFLLYAMGWYRQAPGKERELVASITSDGRTNYADSVKGRFSISRDNAKNTVYLHMNSLKPEDTADYYCATVGKVHHRLVAMDYWGQGTQVTVSS”, the “polyreactivity (PSR sort gate)” value is “low polyreactivity”.

For the sequence “QVQLVESGGGLVQAGGSLRLSCAASGRTFLPYAMGWYRQAPGKERELVAAITYSGGRTYYADSVKGRFTISRDNAKNTVYLQMNSLKPEDTAVYYCAASLWFGGGYWGLGTQVTVSS”, the “polyreactivity (PSR sort gate)” value is on record as “high polyreactivity”.

As for “QVQLVESGGGLVQAGGSLRLSCAASGRTFLQYAMGWYRQAPRQERDLFATISFSGGSTYYADSVKGRITISRDNAKNTVYLLMNSLKPEDTAVYDCAKSQYRGRVYTGYDYWGQGTQVTVSA”, the “polyreactivity (PSR sort gate)” value was “low polyreactivity”.

Consider “QVQLVESGGGLVQAGGSLRLSCAASGRTFLRNAMGWYRQAPGKEREFVAAISTRDGRTYYADSVKGRFTISRDNAKNTVYLQMNSLKPEDTAVYYCNAVNTAGYYYYYAFFWDYDYWGQGTQVTVSS”, for which the “polyreactivity (PSR sort gate)” value is “high polyreactivity”.

On to “QVQLVESGGGLVQAGGSLRLSCAASGRTFLRYAMGWYRQAPGKERELVAAITSSGGSTFYADSVKGRFTISRDNAKNTVYLQMNSLKPEDSAVYYCAASVGRGYYWGQGTQVTVSS”, for which the “polyreactivity (PSR sort gate)” value is recorded as “high polyreactivity”.

Regarding “QVQLVESGGGLVQAGGSLRLSCAASGRTFLRYAMGWYRQAPGKERELVAAITYGGRTNYADSVKGRFTISRDNAKNTVYLQMNSLKPEDTAVYYCAADRTYYYGMRVDYWGQGTQVTVSS”, the “polyreactivity (PSR sort gate)” value is “high polyreactivity”.

Regarding “QVQLVESGGGLVQAGGSLRLSCAASGRTFLRYRMGWYRQAPGKERELVATISRSGGGTTYADSVKGRFTISRYNAKNTVYLQMNSLKPEDTAVYYCNRDQTYPYQYNRWVGQYKYDYWGQGTQVTVSS”, the “polyreactivity (PSR sort gate)” value is “low polyreactivity”.

For “QVQLVESGGGLVQAGGSLRLSCAASGRTFLRYTMGWYRQAPGKERELVAAITYSGGSTYYADSVKGRFTISRDNAKNTVYLQMNSLKPEDTAVYYCAASYLWGYTEYYYWGQGTQVTVSS”, the “polyreactivity (PSR sort gate)” value was “high polyreactivity”.

With “QVQLVESGGGLVQAGGSLRLSCAASGRTFLSNAMGWYRQAPGKERELVADITFRGGNTYYADSVKGRFTISRGNAKNTVYLQMNSLKPEDTAVYYCAVLGYGRLSRVRYGYWGQGTQVTVSS”, the “polyreactivity (PSR sort gate)” value was “high polyreactivity”.
